Laboratory results reported in US20190030126A1, “Inhibitors of the Interaction BCL-2 L10 / IP3 Receptors” (Universite Claude Bernard - Lyon 1, priority 2016, published 2019).
Several values for one entry are separate records, joined by “and”; a condition that tells them apart may be missing. Identical values can stand only once. No end group written: not given here.

Legend:
HeLa cells = experiment: Test of apoptosis (SR-FLICA, caspase activity) in transfected HeLa cells treated with thapsigargin; assay type: cell-based, human; settings: 10 μM thapsigargin for 24 h; for potentiation of thapsigargin effect on caspase activity: HeLa cells transfected with peptide construct (fused to Cb5)
Experimental: (B) Test of apoptosis (SR-FLICA) in response to 10 μM of thapsigargin for 24 h in HeLa cells transfected with the empty vector pCS2+ or the constructs coding for Nrh-WT (wild-type), Nrh-ActA, Nrh-cb5, Nrh-dTM or Nrh-dBH4 (N=3). ***, p<0.001;**, p<0.01; n.s. p>0.1 (Student t-test).
(C) Test of apoptosis (SR-FLICA) in response to 10 μM of thapsigargin for 24 h in HeLa cells transfected with the empty vector pCS2+ or the constructs coding for the peptides Nrh 1-23, Nrh 1-23 Y16F or Nrh 1-23 C20A (N=3). ***, p<0.001;**, p<0.01; n.s. p>0.1 (Student t-test).
The effects of these various proteins were observed after transfection of HeLa cells by the empty vector pCS2+ or with the constructs coding for Nrh, Nrh-ActA, Nrh-cb5, dTM or dBH4.

[1] = target: T1, interaction of Bcl-2 L10/Nrh with the BD domain of the receptor IP3R1 (Homo sapiens, UniProt Q9HD36); experiment: Immunoprecipitation (anti-HA) of the Flag-Nrh / HA-hBD interaction in HeLa cells co-transfected with peptide plasmids; assay type: cell-based; settings: peptides Flag-tagged, fused to cytochrome b5 domain, plasmid ratio 1:2
T1 construct: expressed in transfected cells; host or cells: HeLa
T1 sequence (Q9HD36 11-204): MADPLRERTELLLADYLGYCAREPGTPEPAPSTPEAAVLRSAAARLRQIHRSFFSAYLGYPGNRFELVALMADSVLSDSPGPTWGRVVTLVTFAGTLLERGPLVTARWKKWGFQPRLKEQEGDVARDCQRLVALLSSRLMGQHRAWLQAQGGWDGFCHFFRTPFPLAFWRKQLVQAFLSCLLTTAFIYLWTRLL
From the text: (B) Quantification of the Nrh-IP3R1 interaction by immunoprecipitation experiments with anti-HA antibodies in HeLa cells transfected with plasmids coding for Flag-Nrh, HA-hBD and the different point mutants of the peptides Nrh 1-23 Flag-tagged with a ratio of 1:2 (N=3).
FIG. 5B presents the ability of these different peptides to inhibit the interaction of Bcl-2 L10/Nrh with the BD domain of the receptor IP3R1. This interaction is quantified by the immunoprecipitation technique, the BD domain being tagged with an HA epitope and the protein Bcl-2 L10/Nrh being tagged with a Flag epitope.
HeLa cells are transfected with plasmids coding for Flag-Nrh, HA-hBD and the different point mutants of the peptide Nrh 1-23 Flag-tagged with a ratio of 1:2, and immunoprecipitation is carried out with an anti-HA antibody.

Flag-Nrh (Bcl-2 L10) = target: T2, Flag-Nrh (Bcl-2 L10) (Homo sapiens, UniProt Q9HD36); experiment: Streptavidin pull-down with biotin-labelled peptide, HeLa extracts expressing Flag-Nrh; assay type: binding; settings: 5 μg of biotin-labelled peptide
T2 construct: expressed in transfected cells; host or cells: HeLa (cellular extracts)
T2 sequence (Q9HD36 1-204): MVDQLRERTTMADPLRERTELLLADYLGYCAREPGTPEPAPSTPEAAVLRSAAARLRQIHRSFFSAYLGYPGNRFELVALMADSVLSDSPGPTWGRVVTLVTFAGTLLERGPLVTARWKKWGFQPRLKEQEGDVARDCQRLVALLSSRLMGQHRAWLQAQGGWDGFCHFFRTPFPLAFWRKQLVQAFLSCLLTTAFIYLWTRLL
Experimental: (§1) (A) Streptavidin pull-down in HeLa cells transfected with either empty vector pCS2+, Flag-Nrh, HA-hBD or HA-BECN1, which cellular extracts were incubated or not with 5 μg of biotin-labelled Nrh 1-23 peptide.
(§2) (B) Streptavidin pull-down in HeLa cells transfected with either empty vector pCS2+, Flag-Nrh, or Flag-Nrz, which cellular extracts were incubated with 5 μg of biotin-labelled Nrh 1-23 peptide or Nrh 1-23 R6A Y16F double mutant peptide.
(§3) (A) HeLa cells were transfected with either empty vector pCS2+, Flag-Nrh, HA-hBD or HA-Beclin1 (referred to as HA-BECN1), a protein well known for its binding capacities to Nrh, then cellular extracts were incubated or not with 5 μg of biotin-labelled Nrh 1-23 wild-type peptide. Streptavidin is used for pulling-down the complexes comprising biotin-labelled Nrh peptide.
(§4) Streptavidin is used for pulling-down the complexes comprising biotin-labelled Nrh peptide.

[2] = target: T3, Nrh homodimer (Flag-Nrh / HA-Nrh) (Homo sapiens, UniProt Q9HD36); experiment: Co-immunoprecipitation (anti-HA) of Flag-Nrh and HA-Nrh: Nrh homodimerisation; assay type: binding; settings: incubation with the peptide
T3 construct: the ability of the whole protein Nrh (Bcl-2 L10) to dimerise
T3 sequence (Q9HD36 11-204): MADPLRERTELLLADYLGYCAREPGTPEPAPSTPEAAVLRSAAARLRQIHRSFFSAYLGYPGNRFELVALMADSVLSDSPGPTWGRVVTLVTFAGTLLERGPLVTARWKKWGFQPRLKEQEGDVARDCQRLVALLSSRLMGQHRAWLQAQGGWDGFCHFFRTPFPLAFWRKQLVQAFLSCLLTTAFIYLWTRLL
From the text: Quantification of the interaction between Flag-Nrh and HA-Nrh using co-immunoprecipitation with anti-HA antibody.
FIG. 7 illustrates the quantification of the interaction between Flag-Nrh and HA-Nrh using co-immunoprecipitation with anti-HA antibody. Formation of a Nrh homodimer is observed.

Flag-Nrz = experiment: Streptavidin pull-down with biotin-labelled peptide, HeLa extracts expressing Flag-Nrz; assay type: binding, zebrafish; settings: 5 μg of biotin-labelled peptide
Experimental: as §2, §4

[3] = target: T4, HA-hBD (IP3 binding domain of IP3R1) (Homo sapiens, UniProt Q14643); experiment: Streptavidin pull-down with biotin-labelled peptide, HeLa extracts expressing HA-hBD; settings: 5 μg of biotin-labelled peptide
T4 construct: extending from residue 226 to residue 565 in the human protein; expressed in transfected cells; host or cells: HeLa (cellular extracts)
Experimental: as §1, §3

[4] = target: T5, interaction between the endogenous proteins Nrh and IP3R1 (Homo sapiens, UniProt Q9HD36); experiment: Proximity ligation assay (PLA) of endogenous Nrh and IP3R1 in MDA-MB-231 cells; assay type: cell-based; settings: for inhibition of the Nrh/IP3R1 interaction relative to the limit value: conclusion of the PLA experiment; for percentage inhibition of the Nrh/IP3R1 interaction: with 488 nm flash
T5 construct: endogenous in cells; host or cells: MDA-MB-231
T5 sequence (Q9HD36 11-204): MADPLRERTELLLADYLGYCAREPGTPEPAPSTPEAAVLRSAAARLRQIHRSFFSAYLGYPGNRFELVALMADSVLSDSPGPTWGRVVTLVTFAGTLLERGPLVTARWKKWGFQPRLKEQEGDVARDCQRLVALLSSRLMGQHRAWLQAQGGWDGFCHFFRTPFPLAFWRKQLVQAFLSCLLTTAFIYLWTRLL
Experimental: (A) Proximity ligation assay (PLA) experiments allowing for the detection of the interaction between the endogenous proteins Nrh and IP3R1 in MDA-MB-231 cells.
The MDA-MB-231 cells are incubated for 4 h with the peptide TAT Nrh-1-23 (SEQ ID NO. 4) or the control peptide TAT-Nrh 1-23 Y16F (SEQ ID NO 12, 14 and 6). After 3 washes of the cells, a 488 nm laser is used to excite the fluorophore (FITC) present in the endosomes, rupture the endosomal membrane and release the TAT-FITC peptides into the cytosol. The cells are incubated for 12 h then fixed, and the interaction between Nrh and IP3R1 is quantified by PLA using a rabbit anti-Nrh primary antibody and a mouse anti-IP3R1 primary antibody. This step is followed by incubation with a mixture of anti-rabbit and anti-mouse secondary antibodies, each coupled to a complementary nucleotide probe. A step of ligation then amplification is then carried out in the presence of fluorescent nucleotides, making it possible to amplify a specific signal in the case of spatial proximity of the probes. The fluorescence signal, in which each dot corresponds to an interaction in the cell, is recorded by means of a Nikon NiE fluorescence microscope. The images are quantified by the Image J software, and the interaction score is represented on the graph as number of dots per cell (N=3).

[5] = target: endogenous protein Bcl-2 L10/Nrh (in cells) (human) (UniProt Q9HD36); experiment: proximity ligation assay of endogenous Nrh and IP3R1, MDA-MB-231 cells; against the no-flash control
[6] = target: endogenous protein Bcl-2 L10/Nrh (in cells) (human) (UniProt Q9HD36); experiment: proximity ligation assay of endogenous Nrh and IP3R1, MDA-MB-231 cells; against the vehicle control
[7] = target: endogenous protein Bcl-2 L10/Nrh (in cells) (human) (UniProt Q9HD36); experiment: cell-based or functional assay
[8] = target: endogenous protein Bcl-2 L10/Nrh (in cells) (human) (UniProt Q9HD36); experiment: proximity ligation assay of endogenous Nrh and IP3R1, MDA-MB-231 cells; as a function of the negative control
[9] = target: T6, HA-hBD (IP3 ligand binding domain of human IP3R1 tagged with an HA epitope) (human, UniProt Q14643-2 226-565, limits assumed); experiment: streptavidin pull-down from extracts of transfected HeLa cells
T6 construct: Expressed in HeLa cells; also called HA-hBD IP3R1; BD domain of the receptor IP3R1

[10] = 488 nm flash used to release the peptide

T6 sequence (Q14643 other isoform, or with tags, fused parts or gaps limits assumed): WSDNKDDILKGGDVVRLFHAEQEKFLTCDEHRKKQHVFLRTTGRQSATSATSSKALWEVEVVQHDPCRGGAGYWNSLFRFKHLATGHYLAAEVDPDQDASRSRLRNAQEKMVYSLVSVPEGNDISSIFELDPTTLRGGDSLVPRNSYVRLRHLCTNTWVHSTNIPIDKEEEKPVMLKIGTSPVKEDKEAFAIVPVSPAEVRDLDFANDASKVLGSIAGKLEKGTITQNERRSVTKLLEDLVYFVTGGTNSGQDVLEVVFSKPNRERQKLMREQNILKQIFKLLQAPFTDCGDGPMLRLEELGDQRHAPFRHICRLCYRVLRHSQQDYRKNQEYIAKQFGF
T4 sequence (Q14643 226-565): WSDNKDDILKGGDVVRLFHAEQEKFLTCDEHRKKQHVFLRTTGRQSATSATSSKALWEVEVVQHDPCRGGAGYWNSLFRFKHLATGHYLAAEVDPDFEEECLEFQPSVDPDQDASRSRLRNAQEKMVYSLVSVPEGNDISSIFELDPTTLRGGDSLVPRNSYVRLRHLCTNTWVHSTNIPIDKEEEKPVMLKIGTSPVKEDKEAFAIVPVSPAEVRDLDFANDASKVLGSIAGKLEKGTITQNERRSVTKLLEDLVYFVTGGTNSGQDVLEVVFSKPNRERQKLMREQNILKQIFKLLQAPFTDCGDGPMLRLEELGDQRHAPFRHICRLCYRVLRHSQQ

Molecule: C/C=C(/C)C(=O)O[C@H]1C(C)=C2[C@H]([C@@H]1OC(=O)CCCCCCC)[C@@](C)(OC(C)=O)C[C@H](OC(=O)CCC)[C@@]1(O)[C@H]2OC(=O)[C@@]1(C)O [thapsigargin, reference compound]
- caspase activity (HeLa cells; HeLa control cells (empty vector pCS2+)): greatly induced

Molecule: MADPLAERTELLLADYLGYCARE (Synthetic peptide Peptide R6A) [Nrh R6A, point mutant of Nrh 1-23, non-functional]
- ability to inhibit the Nrh/IP3R1 BD interaction (Flag-Nrh band on Western blot after anti-HA immunoprecipitation) [1]: still visible, albeit faintly

Molecule: MADPLRERTELLLAAYLGYCARE (Synthetic peptide D15A) [Nrh D15A, point mutant of Nrh 1-23, functional]
- ability to inhibit the Nrh/IP3R1 BD interaction (Flag-Nrh band on Western blot after anti-HA immunoprecipitation) [1]: dissociate the Nrh/IP3R1 interaction

Molecule: MADPLRERTELLLADFLGYCARE (Synthetic peptide Y16F) [Nrh Y16F, point mutant of Nrh 1-23, non-functional]
- ability to inhibit the Nrh/IP3R1 BD interaction (Flag-Nrh band on Western blot after anti-HA immunoprecipitation) [1]: still visible, albeit faintly

Molecule: MADPLRERTELLLADYLGYAARE (Synthetic peptide C20A) [Nrh C20A, point mutant of Nrh 1-23, functional]
- ability to inhibit the Nrh/IP3R1 BD interaction (Flag-Nrh band on Western blot after anti-HA immunoprecipitation) [1]: dissociate the Nrh/IP3R1 interaction
- potentiation of thapsigargin effect on caspase activity (HeLa cells): this effect is maintained

Molecule: MADPLRERTELLLADYLGYCARE [Nrh 1-23]
- ability to inhibit the Nrh/IP3R1 BD interaction (Flag-Nrh band on Western blot after anti-HA immunoprecipitation) [1]: dissociate the Nrh/IP3R1 interaction
- interaction with Nrh (pull-down) (Flag-Nrh (Bcl-2 L10)): only able to interact with Nrh
- prevention of Nrh homodimerisation [2]: can be prevented
- interaction with Nrz (pull-down) (Flag-Nrz): not Nrz
- interaction with HA-hBD (pull-down) [3]: not with HA-hBD
- potentiation of thapsigargin effect on caspase activity (HeLa cells): virtually doubled

Molecule: Nrh 1-23 R6A Y16F: biotin-labelled Nrh 1-23 R6A Y16F double mutant peptide (MADPLAERTELLLADFLGYCARE; also: biotin-labelled (position not given here))
- interaction with Nrh (pull-down) (Flag-Nrh (Bcl-2 L10)): reduced interaction with Nrh

Molecule: RKKRRQRRRGGSGGADPLRERTELLLADYLGYCARE [TAT Nrh 1-23]
- PLA interaction score Nrh/IP3R1 [4, 10]: 11±1 dots per cell
- inhibition of the Nrh/IP3R1 interaction relative to the limit value [4]: at least 30%
- PLA interaction score Nrh/IP3R1 ([4]; in the absence of 488 nm flash (no release of the peptides into the cytosol)): 87±6 dots per cell
- percentage inhibition of the Nrh/IP3R1 interaction ([4]; negative control = TAT Nrh 1-23 without flash (87 dots per cell)): 87%
- percentage inhibition of the Nrh/IP3R1 interaction ([4]; negative control = vehicle (80 dots per cell)): 86%

Molecule: TAT Nrh Y16F: combination of TAT (SEQ ID NO. 12), a spacer (SEQ ID NO. 14) and SEQ ID NO. 6 without the methionine; control outside the invention (RKKRRQRRRGGSGGADPLRERTELLLADFLGYCARE)
- PLA interaction score Nrh/IP3R1 [4, 10]: 65±5 dots per cell
- inhibition of the Nrh/IP3R1 interaction relative to the limit value [4]: < 30%

Molecule: control peptide TAT-Nrh 1-23 Y16F, FITC-coupled
- percentage inhibition of the Nrh/IP3R1 interaction [5]: 25%
- percentage inhibition of the Nrh/IP3R1 interaction [6]: 18.8%

Molecule: peptide Nrh 1-23 fused at the C-terminal end with the cytochrome b5 targeting domain, Flag-tagged
- caspase activity (SR-FLICA apoptosis test), HeLa cells, 10 µM thapsigargin for 24 h [7]: 2 fold

Molecule: peptide TAT-Nrh 1-23 (TAT-spacer-domain of binding to IP3Rs without methionine), FITC-coupled
- percentage inhibition of the Nrh/IP3R1 interaction [8]: 86% and 87%

B1: Bcl-2 L10/Nrh-WT: the human Bcl-2 L10/Nrh protein in its wild-type, whole form, expressed from a transfected construct (protein, UniProt Q9HD36 1-204, looked up)
chain: MVDQLRERTTMADPLRERTELLLADYLGYCAREPGTPEPAPSTPEAAVLRSAAARLRQIHRSFFSAYLGYPGNRFELVALMADSVLSDSPGPTWGRVVTLVTFAGTLLERGPLVTARWKKWGFQPRLKEQEGDVARDCQRLVALLSSRLMGQHRAWLQAQGGWDGFCHFFRTPFPLAFWRKQLVQAFLSCLLTTAFIYLWTRLL
modifications: full-length
notes: the human Bcl-2 L10/Nrh protein in its wild-type, whole form, expressed from a transfected construct
- effect on thapsigargin-induced caspase activity (apoptosis-blocking effect) (HeLa cells; HeLa cells overexpressing Nrh construct): reduced by half

B2: biotin-labelled Nrh 1-23 wild-type peptide (peptide)
peptide: MADPLRERTELLLADYLGYCARE
modifications: also: biotin-labelled (position not given here)
notes: 3 (same without the first methionine); also called biotin-labelled Nrh 1-23 peptide
- binding result [9]: no binding (tested: 5 µg of biotin-labelled peptide)
